Experimental data taken from US20190225691A1 (SHANGHAI HENLIUS BIOTECH, published 2019).
Substitutions are numbered along the chain they refer to. Numbers in names are those of the source.

B1: PL15 (full-length, N297A mutant human IgG1) (antibody, V domains shown)
VH: QVQLVQSGAEVKKPGSSVKVSCKASGGTFSSYTISWVRQAPGQGLEWMGRIIPILGIANYAQKFQGRVTITADKSTSTAYMELSSLRSEDTAVYYCARSRDGYSFGAFDIWGQGTLVTVSS
VL: QSVLTQPPSVSGAPGQRVTISCTGYSSNIGAGYDVHWYQHLPGTAPKLLIYGNSNRPSGVPDRFSGSKSGTSASLAITGLQAEDEADYYCQSYDNSLSVSVFGGGTKLTVLG
B2: PL3#7 mtIgG1 (antibody, V domains shown)
VH: B1 VH with T33P, M48I, S104A
VL: QSVVTQPPPVSGAPGQRVTISCTGSSSNIGAGYDVHWYQQLPGTAPKLLIYGNSNRPSGVPDRFSGSKSGTSASLAITGLQAEDEADYYCQTYDSSLSARVVFGGGTKLTVLG
modifications: Antibody was biotinylated (NHS-PEG4-biotin, sites not specified) for the Octet assay of Table 11.
notes: N297A mutant human IgG1
B3: PL3#7 IgG1 (antibody, V domains shown)
VH: B1 VH with T33P, M48I, S104A
VL: QSVVTQPPPVSGAPGQRVTISCTGSSSNIGAGYDVHWYQQLPGTAPKLLIYGNSNRPSGVPDRFSGSKSGTSASLAITGLQAEDEADYYCQTYDSSLSARVVFGGGTKLTVL
notes: Human IgG1
B4: PL3#7 IgG2 (antibody, V domains shown)
VH: B1 VH with T33P, M48I, S104A
VL: B3 VL
notes: Human IgG2
B5: PL3#7 IgG4 (antibody, V domains shown)
VH: B1 VH with T33P, M48I, S104A
VL: B3 VL
notes: Human IgG4
B6: PL3#1 IgG2 (antibody, V domains shown)
VH: B1 VH with T33R, F105V, I110S
VL: B3 VL with N55R, A99R, R100P
notes: Human IgG2
B7: PL3 IgG1 (antibody, V domains shown)
VH: B1 VH
VL: B3 VL with T92S, R100P
B8: PL3 IgG2 (antibody, V domains shown)
VH: B1 VH
VL: B3 VL with T92S, R100P
notes: Human IgG2
B9: PL3#1 mtIgG1 (N297A) (antibody, V domains shown)
VH: B1 VH with T33R, F105V, I110S
VL: B3 VL with N55R, A99R, R100P
notes: N297A mutant human IgG1
B10: PL6 (full-length, N297A mutant human IgG1) (antibody, V domains shown)
VH: EVQLVQSGAEVKKPGSSVKVSCKASGGTFSSYTINWVRQAPGQGLEWVGKIIPILGIADYAQMFKGRVTITADKFTSTVYMELNSLRSEDTAVYYCARGGYVGYLNAFDIWGQGTMVTVSS
VL: B1 VL with L4V, Y25S, H40Q, N95S, V99G, S100G
B11: PL8 (full-length, N297A mutant human IgG1) (antibody, V domains shown)
VH: EVQLVQSGAEVKKPGSSVKVSCKASGGTFSSYAISWVRQAPGQGLEWMGRIIPIFGTANYAQKFQGRVTITADESTSTAYMELSSLRSEDTAVYYCAREGVLDAFDIWGQGTMVTVSS
VL: LSSELTQDPAVSVALGQTVRITCQGDSLRSYYVSWYQQKPGQAPVLVLYGKNNRPSGIPDRFSGSSSGSTASLTITGAQAEDEADYYCNSRDSTGNLLRVFGGGTKLTVLG
B12: PL2 IgG2 (antibody, V domains shown)
VH: EVQLVQSGGGLVKPGGSLRLSCAASGFTFSSYTMNWVRQAPGKGLEWVSSISSGSDYLYYADSVKGRFTISRDNAKNSLYLQMNSLRAEDTAVYYCARNELRWYPQAGAFDIWGQGTMVTVSS
VL: QSVVTQPPSMSAAPGQNVTISCSGSSSYIESSYVSWYQQLPGTAPRLLIYDDDMRPSGIPDRFSGSKSGTSATLAITGLQTGDEADYYCEIWDSGLGGVFGGGTKLTVL
B13: PL2#4 IgG2 (antibody, V domains shown)
VH: B12 VH with Q106L
VL: B12 VL with N17R, S25V, E90K
notes: Human IgG2 backbone
B14: PL2#5 IgG2 (antibody, V domains shown)
VH: B12 VH with Q106F
VL: B12 VL with N17R, G95R
notes: Human IgG2 backbone
B15: PL2#39 IgG2 (antibody, V domains shown)
VH: B12 VH with Q106K
VL: B12 VL with N17R, E30T, E90K
notes: Human IgG2 backbone

Molecular target: T1, human PD-L1 on cells (PHA-activated human T cells); PD-L1-transfected CHO-S cells; A375 melanoma cells; … (human, UniProt Q9NZQ7 19-290)
T1 construct: whole, on cells; also called PD-L1 expressing T cells; PD-L1 expressing CHO-S cells
Assay: flow cytometry on PHA-activated human CD3+ T cells, FITC-labeled anti-human IgG Fcγ, MFI
Description: Human T cells were isolated from PBMC using MagniSortTM Human T Cell Enrichment Kit (eBioscience). Isolated T cells were activated by 5 μg/mL phytohemagglutinin (PHA) for 3 days to stimulate the PD-L1 expression. Activated T cells were collected and incubated in FACS buffer (PBS with 2% FBS) with human Fc blocker (eBioscience) for 20 minutes at 4° C. Binding of anti-PD-L1 monoclonal antibody was assessed by incubating the activated T cells with the serial-diluted antibodies in FACS buffer. The cells were washed with flow buffer and the binding was detected with a FITC-labeled rabbit anti-human IgG FcγAb. Cells were also stained with mouse anti-human CD3 PE-Cy7 (eBioscience) for gating CD3-positive T cells. Flow cytometric analyses were performed using the Cytomics FC 500 (Beckman Coulter Inc.).

T1 sequence (Q9NZQ7 19-290): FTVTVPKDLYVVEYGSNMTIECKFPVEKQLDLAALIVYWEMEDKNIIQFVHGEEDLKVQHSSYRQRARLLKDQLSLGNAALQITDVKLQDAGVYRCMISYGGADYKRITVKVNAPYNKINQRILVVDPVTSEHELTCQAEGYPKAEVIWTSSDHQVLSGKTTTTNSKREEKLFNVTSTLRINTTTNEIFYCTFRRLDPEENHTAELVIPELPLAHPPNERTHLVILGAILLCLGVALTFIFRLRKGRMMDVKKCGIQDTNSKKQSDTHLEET

EC50 (read off the curve) [µg/mL] | Binder
~0.03 | B1

Molecular target: T2, recombinant cynomolgus monkey PD-L1_ECD Fc-fusion protein (Sino Biological Inc.) (cynomolgus monkey, UniProt G7PSE7 19-238)
T2 construct: Bought
Assay: ELISA: cynomolgus monkey PD-L1_ECD/Fc coated (9 ng/well), peroxidase-labeled goat anti-human IgG F(ab)'2, TMB, OD450
Description: The recombinant cynomolgus monkey PD-L1_ECD Fc-fusion proteins were purchased from Sino Biological Inc. PD-L1_ECD/Fc (9 ng per well) were immobilized onto 96-well assay plat by incubating overnight at 4° C. Nonspecific binding sites were blocked using 5% skim milk in PBS for one hour at room temperature. After washing plates three times with PBST, indicated concentrations of anti-PD-L1 antibodies and HLX01 (negative control) were incubated with the immobilized proteins for one hour at room temperature. The plates were washed three times with PBST and then incubated for one hour at room temperature with peroxidase-labeled goat anti-human IgG F(ab)′2 (Jackson ImmunoResearch Laboratories) diluted 1/10,000 in PBS. After washing, plates were developed using TMB (eBioscience). The absorbance was read at the wavelength of 450 nm by Varioskan LUX microplate reader (Thermo Scientific).
HLX01 (anti-CD20 mAb) was used as the negative control.

T2 sequence (G7PSE7 entry or part of it limits assumed): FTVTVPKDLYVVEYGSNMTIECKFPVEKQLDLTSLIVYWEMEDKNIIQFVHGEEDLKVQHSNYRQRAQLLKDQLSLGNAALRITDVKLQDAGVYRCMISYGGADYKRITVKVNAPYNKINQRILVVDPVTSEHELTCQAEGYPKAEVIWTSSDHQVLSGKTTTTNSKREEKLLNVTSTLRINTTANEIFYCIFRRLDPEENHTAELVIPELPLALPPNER

EC50 (read off the curve) [µg/mL] | Binder
~0.04 | B2

Molecular target: T3, human PD-L1 ECD-His (human, UniProt Q9NZQ7 19-238)
T3 construct: extracellular domain; Analyte in all SPR and BLI runs; also called hPD-L1_ECD-His; hPD-L1 ECD-His; not shown: His tag
Assay: SPR, ratio of KD to ref-1

T3 sequence (Q9NZQ7 19-238): as the sequence (G7PSE7 entry or part of it limits assumed) above, with T33A, S34A, N62S, Q68R, R82Q, L173F, A185T, I192T, L215H counted along it

Improvement over ref-1 [fold] | Binder
1.38 | B3
1.81 | B4
1.97 | B5
0.85 | B6
0.12 | B7
0.1 | B8
1.73 | B9

Molecular target: T3, human PD-L1 ECD-His
Assay: SPR, hPD-L1-His, PL3 variants

Kd [nM] | koff [s⁻¹] | kon [M⁻¹ s⁻¹] | Binder
0.457 | 0.000444 | 997000 | B3
0.349 | 0.000327 | 995000 | B4
0.321 | 0.000362 | 1.14e+06 | B5
0.74 | 0.00067 | 931000 | B6
5.46 | 0.00291 | 542000 | B7
6.64 | 0.00277 | 417000 | B8
0.366 | 0.000395 | 1.1e+06 | B9

Molecular target: T1, human PD-L1 on cells (PHA-activated …)
Assay: flow cytometry blocking assay: PD-L1 expressing CHO-S cells incubated with antibody, then biotin-labeled PD-1-Fc and streptavidin-PE; MFI of bound PD-1
Description: PD-L1 expressing CHO-S cells were suspended in FACS buffer (PBS with 4% FBS). Various concentrations of tested antibodies were added to the cell suspension (3.5E5 cells/well) and incubated at 4° C. for 30 minutes. […] The cells were washed and then stained with streptavidin-PE at 4° C. for 30 minutes. Flow cytometric analyses were performed using the Cytomics FC 500 (Beckman Coulter Inc.).
Anti-PD-L1 reference antibody and Avastin were used as the positive and negative control, respectively.

IC50 (read off the curve) [µg/mL] | Binder
~0.06 | B1
~0.03 | B10

Molecular target: T3, human PD-L1 ECD-His
Assay: SPR, 25 C, antibody captured by anti-human IgG Fc, hPD-L1_ECD-His analyte, 1:1 fit
Description: Experiments were carried out at 25° C., and measurements were made with serial dilutions of hPD-L1_ECD-His from 55.4 nM to 11.1 nM passing over the captured antibodies in HBS-P+ buffer supplemented with 0.1% (w/v) BSA with a flow rate of […]. All data were analyzed with the evaluation software and curves were fit with a 1:1 Langmuir binding model. Data are representative of two independent experiments performed in duplicate.

Kd [nM] | koff [s⁻¹] | kon [M⁻¹ s⁻¹] | Binder
15 | 0.00933 | 645000 | B1
11.2 | 0.0122 | 1.05e+06 | B10
8.85 | 0.00348 | 382000 | B11

Molecular target: T3, human PD-L1 ECD-His
Assay: SPR, ratio of KD to ref-1
Remark: another data set of the same source
Description: (§1) The binding affinity and kinetics were measured using surface plasmon resonance (SPR). […] Experiments were carried out at 25° C., and measurements were made with serial dilutions of hPD-L1-His from 19.1 nM to 0.71 nM passing over the captured antibodies in HBS-P+buffer supplemented with 0.1% (w/v) BSA with a flow rate of 25 μL/min. All data were analyzed with the evaluation software and curves were fit with a 1:1 Langmuir binding model. All the data are representative of two independent studies performed in duplicate.

Improvement over ref-1 [fold] | Binder
1.21 | B12
6.62 | B13
2.74 | B14
10.8 | B15

Molecular target: T3, human PD-L1 ECD-His
Assay: BLI Octet RED96, biotinylated antibody on SA sensor, hPD-L1-His analyte, 1:1 fit
Description: (§2) Briefly, black 96-well plate was prepared with columns containing 200 μL/well of reagents required for determination of affinity. In general, Octet SA sensors were first placed in wells containing 1×Kinetics Buffer (PBS, 0.1% BSA, 0.02% Tween-20, pH 7.4) for 180 seconds to establish a baseline. […] Sensors were then regenerated by 3×5 second incubations in Regeneration Buffer (10 mM Glycine, pH 1.5) followed by a 5 second incubation in 1×Kinetics Buffer each time. Regeneration was repeated before measurement of each association/dissociation cycle. Sensors were then placed in fresh 1×Kinetics Buffer for 180 seconds to establish a baseline. Association was then measured by incubating the sensors for 5 minutes in wells containing hPD-L1-His followed by transferring to wells containing 1×Kinetics Buffer for 10 minutes to measure dissociation. Kinetics (ka, kd, and […] were measured by global fitting four association/dissociation cycles of data obtained from 1:3 serial dilutions of hPD-L1-His from 38.28 nM to 1.42 nM (one association/dissociation cycle for one concentration) with a 1:1 Langmuir binding model. All data were analyzed with Octet Data Analysis Software v.9.0 and representative of two independent experiments performed in duplicate.
(§3) All the data are representative of two independent experiments performed in duplicate.

Kd [nM] | koff [s⁻¹] | kon [M⁻¹ s⁻¹] | Binder
1.09 | 0.000305 | 298000 | B2

Molecular target: T3, human PD-L1 ECD-His
Assay: BLI, ratio of KD to ref-1
Description: as §2, §3

Improvement over ref-1 [fold] | Binder
2.26 | B2

Molecular target: T3, human PD-L1 ECD-His
Assay: SPR, 25 C, antibody captured by anti-human IgG Fc, hPD-L1-His analyte, 1:1 fit
Description: as §1

Kd [nM] | koff [s⁻¹] | kon [M⁻¹ s⁻¹] | Binder
6.96 | 0.00217 | 747000 | B12
1.27 | 0.00099 | 882000 | B13
3.07 | 0.00221 | 812000 | B14
0.779 | 0.00143 | 2.04e+06 | B15
